Test [1] has as its target human neonatal Fc-receptor (FcRn) (human) (UniProt P55899). Kind of test: FcRn affinity chromatography, anti-HER2 antibody.
For test [2] the target is unchanged. The test is described as follows: FcRn affinity chromatography of a knobs-into-holes bispecific antibody.
The target is the same in test [3]. The test is described as follows: FcRn affinity chromatography, bispecific KiH antibody.
Test [4] has the same target. The test is described as follows: FcRn affinity chromatography.

human neonatal Fc-receptor (FcRn) (human), sequence (P55899 24-297 limits assumed, chain 1 of 2): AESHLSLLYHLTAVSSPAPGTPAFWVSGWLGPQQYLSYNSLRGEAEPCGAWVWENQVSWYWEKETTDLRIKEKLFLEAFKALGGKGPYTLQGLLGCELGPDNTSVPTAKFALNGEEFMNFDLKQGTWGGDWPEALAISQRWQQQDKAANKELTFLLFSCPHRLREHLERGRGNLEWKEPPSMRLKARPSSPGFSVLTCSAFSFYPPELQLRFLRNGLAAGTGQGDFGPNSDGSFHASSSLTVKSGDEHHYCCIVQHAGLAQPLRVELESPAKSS
human neonatal Fc-receptor (FcRn) (human), sequence (P61769 21-119 limits assumed, chain 2 of 2, further chain): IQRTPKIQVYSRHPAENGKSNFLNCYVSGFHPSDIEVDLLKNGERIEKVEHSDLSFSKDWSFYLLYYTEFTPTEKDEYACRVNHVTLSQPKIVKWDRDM

In test [1], anti-HER2 antibody, symmetric N434H yielded a retention time on FcRn affinity column of 52 min.

For the substance “bispecific antibody (knobs-into-holes), first chain I253A/H310A/H435A, second chain I253A/H310A/H435A”, the RT (Min) on the FcRn affinity column in test [2] amounted to 0 min.

The substance anti-HER2 antibody, symmetric E258H registered a retention time on FcRn affinity column in test [1] of 45.6 min.

For the substance “bispecific antibody (knobs-into-holes), one chain with H310A/H433A/Y436A”, in test [3], the retention time on FcRn affinity column amounted to 46.7 min.

In turn, anti-HER2 antibody, symmetric Q311H gave a retention time on FcRn affinity column in test [1] of 46.3 min.

In turn, anti-HER2 antibody, symmetric T256H came in with a retention time on FcRn affinity column in test [1] of 46 min.

anti-HER2 antibody, wild-type came in with a retention time on FcRn affinity column in test [1] of 46.3 min.

In test [1], anti-HER2 antibody, symmetric R255D registered a retention time on FcRn affinity column of 41.4 min.

Turning to “bispecific antibody (knobs-into-holes), first chain I253A/H310A/H435A, second chain H310A”, the RT (Min) on the FcRn affinity column in test [2] worked out at 0 min.

The substance anti-HER2 antibody, symmetric K288E showed a retention time on FcRn affinity column in test [1] of 45.2 min.

anti-HER2 antibody, symmetric K317H showed a retention time on FcRn affinity column in test [1] of 46.3 min.

Turning to “bispecific antibody (knobs-into-holes), one chain with L251D/L314D/L432D”, the retention time on FcRn affinity column in test [3] amounted to 46.3 min.

Take “bispecific antibody (knobs-into-holes), one chain with H310A”: the RT (Min) on the FcRn affinity column in test [2] came out at 48.4 min. Also, the retention time on FcRn affinity column in test [3] was 48.4 min.

As to “bispecific antibody (knobs-into-holes), first chain I253A/H310A/H435A, second chain H435A”, the RT (Min) on the FcRn affinity column in test [2] came out at 0 min.

Consider “bispecific antibody (knobs-into-holes), one chain with H435A”, for which the RT (Min) on the FcRn affinity column in test [2] was found to be 48.8 min. Moreover, in test [3], the retention time on FcRn affinity column came out at 48.8 min.

“bispecific antibody (knobs-into-holes), one chain with I253A” yielded an RT (Min) on the FcRn affinity column in test [2] of 48.8 min. The retention time on FcRn affinity column in test [3] stood at 48.8 min.

anti-HER2 antibody, symmetric K290H: the retention time on FcRn affinity column in test [1] is 46.2 min.

anti-HER2 antibody, symmetric E430H displayed a retention time on FcRn affinity column in test [1] of 46.4 min.

Consider “bispecific antibody (knobs-into-holes), one chain with M252Y/S254T/T256E”, for which the retention time on FcRn affinity column in test [3] is 56.2 min.

Substance “IgG1 Fc-region molecule with L234A/L235A/P329G and Y436A (symmetric)” registered a FcRn-affinity column retention time in test [4] of 41.3 min.

With anti-HER2 antibody, symmetric L309H, the retention time on FcRn affinity column in test [1] is 45.5 min.
